The values below come from article PMC9333989.

Common to all, as to assay: co-IP; FFLISA as a1; total Lck signal of all sucrose gradient fractions normalised to CD4 signal, given relative to WT
In experiment [1] the target is mouse CD4 HC mutant (total helix + clasp: aa430–442 replaced, C444S, C446S) (mouse) (UniProt P06332).
The target in experiment [2] is mouse CD4 H mutant (total ICD helix mutation, aa430–442 to …) (mouse) (UniProt P06332).
Experiment [3] addresses mouse CD4 TP mutant (TMD + Palm: G403V, G406L, C418S, C421S) (mouse) (UniProt P06332).
In experiment [4] the target is mouse CD4 Clasp mutant (C444S, C446S) (mouse) (UniProt P06332).
Experiment [5] deals with mouse CD4 LL mutant (L437A + L438A) (mouse) (UniProt P06332).

In the case of “Lck (Src kinase) (from UniProt P06240 1-509) (enzyme)”, the figures for the CD4−Lck association, percent of WT in experiment [1] and in experiment [2] were 14 % of WT and 25 % of WT, respectively. The total CD4–Lck abundance, percent of WT in experiment [3] is 123 % of WT; in experiment [4], 31 % of WT; in experiment [5], 49 % of WT.
